Measurements as given in article doi:10.1101/302828 (bioRxiv, 2018).

Biological target: the molecule itself
Assay: SEC

B1: recombinant murine chromogranin B (CHGB) (natural protein, mouse, UniProt P16014 21-677, looked up)
chain: APVDNRDHNEEMVTRCIIEVLSNALSKSSVPTITPECRQVLKKSGKEVKGEEKGENQNSKFEVRLLRDPADASGTRWASSREDAGAPVEDSQGQTKVGNEKWTEGGGHSREGVDDQESLRPSNQQASKEAKIYHSEERVGKEREKEEGKIYPMGEHREDAGEEKKHIEDSGEKPNTFSNKRSEASAKKKDESVARADAHSMELEEKTHSREQSSQESGEETRRQEKPQELTDQDQSQEESQEGEEGEEGEEGEEGEEDSASEVTKRRPRHHHGRSGSNKSSYEGHPLSEERRPSPKESKEADVATVRLGEKRSHHLAHYRASEEEPEYGEESRSYRGLQYRGRGSEEDRAPRPRSEESQEREYKRNHPDSELESTANRHGEETEEERSYEGANGRQHRGRGREPGAHSALDTREEKRLLDEGHYPVRESPIDTAKRYPQSKWQEQEKNYLNYGEEGDQGRWWQQEEQLGPEESREEVRFPDRQYEPYPITEKRKRLGALFNPYFDPLQWKNSDFEKRGNPDDSFLEDEGEDRNGVTLTEKNSFPEYNYDWWERRPFSEDVNWGYEKRSFARAPQLDLKRQYDGVAELDQLLHYRKKADEFPDFYDSEEQMGPHQEANDEKARADQRVLTAEEKKELENLAAMDLELQKIAEKFSQRG
For B1, the “stoichiometry N” value was 2.
